Source: patent US20240409645A1 (published 2024)

T1: human IL-2 receptor IL-2Rα/IL-2Rβ/γc on HEK-Blue IL-2 cells (UniProt P01589 22-272; P14784 27-551; P31785 23-369)
T1 chain 1: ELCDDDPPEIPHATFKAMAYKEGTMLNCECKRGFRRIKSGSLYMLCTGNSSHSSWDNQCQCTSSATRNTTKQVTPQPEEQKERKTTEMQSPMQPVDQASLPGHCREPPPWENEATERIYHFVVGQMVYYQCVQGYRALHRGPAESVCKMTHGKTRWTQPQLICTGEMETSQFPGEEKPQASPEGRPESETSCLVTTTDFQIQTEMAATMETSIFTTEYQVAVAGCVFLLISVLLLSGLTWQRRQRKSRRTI
T1 chain 2: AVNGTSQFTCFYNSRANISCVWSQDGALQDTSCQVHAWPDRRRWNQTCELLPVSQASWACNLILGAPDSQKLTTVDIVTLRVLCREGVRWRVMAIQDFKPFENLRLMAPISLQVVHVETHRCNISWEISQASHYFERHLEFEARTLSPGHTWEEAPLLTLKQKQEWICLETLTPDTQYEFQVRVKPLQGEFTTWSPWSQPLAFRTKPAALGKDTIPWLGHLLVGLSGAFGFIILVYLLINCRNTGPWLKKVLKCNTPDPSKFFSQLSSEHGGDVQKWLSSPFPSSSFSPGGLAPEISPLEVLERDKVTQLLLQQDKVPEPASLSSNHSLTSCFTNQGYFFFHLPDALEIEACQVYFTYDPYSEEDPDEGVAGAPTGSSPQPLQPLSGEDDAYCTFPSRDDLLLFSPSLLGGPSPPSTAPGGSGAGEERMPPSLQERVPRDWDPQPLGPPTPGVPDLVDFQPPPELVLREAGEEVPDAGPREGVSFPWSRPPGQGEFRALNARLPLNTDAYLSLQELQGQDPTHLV
T1 chain 3: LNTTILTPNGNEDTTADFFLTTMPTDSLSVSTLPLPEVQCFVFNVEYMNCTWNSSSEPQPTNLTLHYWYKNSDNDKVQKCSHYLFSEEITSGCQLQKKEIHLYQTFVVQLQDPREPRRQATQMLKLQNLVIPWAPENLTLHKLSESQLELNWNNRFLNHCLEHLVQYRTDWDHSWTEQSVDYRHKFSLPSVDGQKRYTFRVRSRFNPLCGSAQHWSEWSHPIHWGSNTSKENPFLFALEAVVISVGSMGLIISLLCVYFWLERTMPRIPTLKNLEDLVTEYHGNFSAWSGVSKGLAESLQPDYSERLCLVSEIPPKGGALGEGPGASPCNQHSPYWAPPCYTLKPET


Biological target: T1, human IL-2 receptor IL-2Rα/IL-2Rβ/γc on …
Assay: FACS cell binding; avid

Binder | EC50
BsVHH-4 (35x16) (antibody) QVQLQESGGGLVQGGGSLRLSCAASGGIFSSYAMGWFRQAPGKEREFVAAISRSGRSTNYADSVKGRFTISRDNAKSTVYLQMNSLKPEETAVYYCAAGRYYNSAYDPSPGDFGSWGHGTQVTVSSGGGGSGGGGSGGGGSGSEVQLVESGGGLVQAGGSLRLSCAASGRAIENYPVGWFRQAPGKEREFVAAITWISGSTLYADSVKGRFTISRDNAKNTVYLQMSSLKPEDTALYYCAAALKTITRGQNDYSYWGQGTQVTVSSGGGGSGGGGSGGGGSTVSSDKTHTCPPCPAPEAAGGPSVFLFPPKPKDTLMISRTPEVTCVVVDVSHEDPEVKFNWYVDGVEVHNAKTKPREEQYNSTYRVVSVLTVLHQDWLNGKEYKCKVSNKALGAPIEKTISKAKGQPREPQVYTLPPSRDELTKNQVSLTCLVKGFYPSDIAVEWESNGQPENNYKTTPPVLDSDGSFLLYSKLTVDKSRWQQGNVFSCSVMHEALHNHYTQKSLSLSPGK | 3.5 nM
BsVHH-6 (27x18) (antibody) QVQLVESGGGLVQAGGSLTLSCAAPGRTFGTDVVGWFRQAPGKEREFVASISRSGDGIYYDDSVKGRFTISRNNAWNTVNLQMNSLKVEDTAVYYCAAGDGWSTYDYWGQGTQVTVSSGGGGSGGGGSGGGGSGSQVQLVESGGGLVQPGGSLRLSCAISGGTLDSYGIGWVRQAPGKQREGVSCMSRSDDRTYYADSVKGRFTISKDSAKNTVYLQMTSLKPEDTAVYYCAAVDAYGCSLVQPTTYDFWGLGTQVTVSSGGGGSGGGGSGGGGSTVSSDKTHTCPPCPAPEAAGGPSVFLFPPKPKDTLMISRTPEVTCVVVDVSHEDPEVKFNWYVDGVEVHNAKTKPREEQYNSTYRVVSVLTVLHQDWLNGKEYKCKVSNKALGAPIEKTISKAKGQPREPQVYTLPPSRDELTKNQVSLTCLVKGFYPSDIAVEWESNGQPENNYKTTPPVLDSDGSFLLYSKLTVDKSRWQQGNVFSCSVMHEALHNHYTQKSLSLSPGK | 172 nM
BsVHH-5 (36x16) (antibody) QVQLVESGGGLVQAGGSLRLSCAASGRTLSRYAMGWFRQAPGSEREFVAASSWGGDTFYADSVEGRFTFSRDNAKNAVYLQMNSLQPEDTAAYYCAAAPTSFPTTAYSSSNSYAYWGQGTQVTVSSGGGGSGGGGSGGGGSGSEVQLVESGGGLVQAGGSLRLSCAASGRAIENYPVGWFRQAPGKEREFVAAITWISGSTLYADSVKGRFTISRDNAKNTVYLQMSSLKPEDTALYYCAAALKTITRGQNDYSYWGQGTQVTVSSGGGGSGGGGSGGGGSTVSSDKTHTCPPCPAPEAAGGPSVFLFPPKPKDTLMISRTPEVTCVVVDVSHEDPEVKFNWYVDGVEVHNAKTKPREEQYNSTYRVVSVLTVLHQDWLNGKEYKCKVSNKALGAPIEKTISKAKGQPREPQVYTLPPSRDELTKNQVSLTCLVKGFYPSDIAVEWESNGQPENNYKTTPPVLDSDGSFLLYSKLTVDKSRWQQGNVFSCSVMHEALHNHYTQKSLSLSPGK | 121 nM
BsVHH-3 (32x16) (antibody) QVQLVESGGGLVQAGGSLRLSCAASGRTFGSTAVGWFRQVPGKEREFVSAINRSGSATTYADSVKGRFTISRDNAKNTVYLQMNSLTPEDTGVYYCAADSLPYGRPYYFQRSAGEYDYWGQGTQVTVSSGGGGSGGGGSGGGGSGSEVQLVESGGGLVQAGGSLRLSCAASGRAIENYPVGWFRQAPGKEREFVAAITWISGSTLYADSVKGRFTISRDNAKNTVYLQMSSLKPEDTALYYCAAALKTITRGQNDYSYWGQGTQVTVSSGGGGSGGGGSGGGGSTVSSDKTHTCPPCPAPEAAGGPSVFLFPPKPKDTLMISRTPEVTCVVVDVSHEDPEVKFNWYVDGVEVHNAKTKPREEQYNSTYRVVSVLTVLHQDWLNGKEYKCKVSNKALGAPIEKTISKAKGQPREPQVYTLPPSRDELTKNQVSLTCLVKGFYPSDIAVEWESNGQPENNYKTTPPVLDSDGSFLLYSKLTVDKSRWQQGNVFSCSVMHEALHNHYTQKSLSLSPGK | 3.7 nM

Now from value to binder:

EC50 | Binder
3.4 nM | BsVHH-20 (36x22) (antibody) QVQLVESGGGLVQAGGSLRLSCAASGRTLSRYAMGWFRQAPGSEREFVAASSWGGDTFYADSVEGRFTFSRDNAKNAVYLQMNSLQPEDTAAYYCAAAPTSFPTTAYSSSNSYAYWGQGTQVTVSSGGGGSGGGGSGGGGSGSEVQLVESGGGLVQAGGSLRLSCAASGSIFSINAMAWFRQVPGMERELVAAISRDGGASVYRDSVKGRFTISRDNSKNTVYLQMNTLKPEDTAIYVCAATRAIGWTARWITTDFDFWGQGTQVTVSSGGGGSGGGGSGGGGSTVSSDKTHTCPPCPAPEAAGGPSVFLFPPKPKDTLMISRTPEVTCVVVDVSHEDPEVKFNWYVDGVEVHNAKTKPREEQYNSTYRVVSVLTVLHQDWLNGKEYKCKVSNKALGAPIEKTISKAKGQPREPQVYTLPPSRDELTKNQVSLTCLVKGFYPSDIAVEWESNGQPENNYKTTPPVLDSDGSFLLYSKLTVDKSRWQQGNVFSCSVMHEALHNHYTQKSLSLSPGK
4.2 nM | BsVHH-10 (36x18) (antibody) QVQLVESGGGLVQAGGSLRLSCAASGRTLSRYAMGWFRQAPGSEREFVAASSWGGDTFYADSVEGRFTFSRDNAKNAVYLQMNSLQPEDTAAYYCAAAPTSFPTTAYSSSNSYAYWGQGTQVTVSSGGGGSGGGGSGGGGSGSQVQLVESGGGLVQPGGSLRLSCAISGGTLDSYGIGWVRQAPGKQREGVSCMSRSDDRTYYADSVKGRFTISKDSAKNTVYLQMTSLKPEDTAVYYCAAVDAYGCSLVQPTTYDFWGLGTQVTVSSGGGGSGGGGSGGGGSTVSSDKTHTCPPCPAPEAAGGPSVFLFPPKPKDTLMISRTPEVTCVVVDVSHEDPEVKFNWYVDGVEVHNAKTKPREEQYNSTYRVVSVLTVLHQDWLNGKEYKCKVSNKALGAPIEKTISKAKGQPREPQVYTLPPSRDELTKNQVSLTCLVKGFYPSDIAVEWESNGQPENNYKTTPPVLDSDGSFLLYSKLTVDKSRWQQGNVFSCSVMHEALHNHYTQKSLSLSPGK
41.8 nM | BsVHH-13 (32x19) (antibody) QVQLVESGGGLVQAGGSLRLSCAASGRTFGSTAVGWFRQVPGKEREFVSAINRSGSATTYADSVKGRFTISRDNAKNTVYLQMNSLTPEDTGVYYCAADSLPYGRPYYFQRSAGEYDYWGQGTQVTVSSGGGGSGGGGSGGGGSGSEVQLVESGGGLVQTGGSLRLSCAASGGTFSRDAMAWFRQVPGKEREFVALISWSGATTNYADSVKGRFAISRDNGKNTVYLQMNRLKPADTAIYYCAADRRPMGSRSYFEPTEYDDWGQGTQVTVSSGGGGSGGGGSGGGGSTVSSDKTHTCPPCPAPEAAGGPSVFLFPPKPKDTLMISRTPEVTCVVVDVSHEDPEVKFNWYVDGVEVHNAKTKPREEQYNSTYRVVSVLTVLHQDWLNGKEYKCKVSNKALGAPIEKTISKAKGQPREPQVYTLPPSRDELTKNQVSLTCLVKGFYPSDIAVEWESNGQPENNYKTTPPVLDSDGSFLLYSKLTVDKSRWQQGNVFSCSVMHEALHNHYTQKSLSLSPGK
659 nM | BsVHH-16 (27x22) (antibody) QVQLVESGGGLVQAGGSLTLSCAAPGRTFGTDVVGWFRQAPGKEREFVASISRSGDGIYYDDSVKGRFTISRNNAWNTVNLQMNSLKVEDTAVYYCAAGDGWSTYDYWGQGTQVTVSSGGGGSGGGGSGGGGSGSEVQLVESGGGLVQAGGSLRLSCAASGSIFSINAMAWFRQVPGMERELVAAISRDGGASVYRDSVKGRFTISRDNSKNTVYLQMNTLKPEDTAIYVCAATRAIGWTARWITTDFDFWGQGTQVTVSSGGGGSGGGGSGGGGSTVSSDKTHTCPPCPAPEAAGGPSVFLFPPKPKDTLMISRTPEVTCVVVDVSHEDPEVKFNWYVDGVEVHNAKTKPREEQYNSTYRVVSVLTVLHQDWLNGKEYKCKVSNKALGAPIEKTISKAKGQPREPQVYTLPPSRDELTKNQVSLTCLVKGFYPSDIAVEWESNGQPENNYKTTPPVLDSDGSFLLYSKLTVDKSRWQQGNVFSCSVMHEALHNHYTQKSLSLSPGK
38.1 nM | BsVHH-11 (27x19) (antibody) QVQLVESGGGLVQAGGSLTLSCAAPGRTFGTDVVGWFRQAPGKEREFVASISRSGDGIYYDDSVKGRFTISRNNAWNTVNLQMNSLKVEDTAVYYCAAGDGWSTYDYWGQGTQVTVSSGGGGSGGGGSGGGGSGSEVQLVESGGGLVQTGGSLRLSCAASGGTFSRDAMAWFRQVPGKEREFVALISWSGATTNYADSVKGRFAISRDNGKNTVYLQMNRLKPADTAIYYCAADRRPMGSRSYFEPTEYDDWGQGTQVTVSSGGGGSGGGGSGGGGSTVSSDKTHTCPPCPAPEAAGGPSVFLFPPKPKDTLMISRTPEVTCVVVDVSHEDPEVKFNWYVDGVEVHNAKTKPREEQYNSTYRVVSVLTVLHQDWLNGKEYKCKVSNKALGAPIEKTISKAKGQPREPQVYTLPPSRDELTKNQVSLTCLVKGFYPSDIAVEWESNGQPENNYKTTPPVLDSDGSFLLYSKLTVDKSRWQQGNVFSCSVMHEALHNHYTQKSLSLSPGK
